Assay results reported in publication PMC2573054 (The Journal of Biological Chemistry, 2008).

B1: c-myc epitope-tagged human PLCγ2 (PLCγ2-222, wild type) (enzyme)
chain: MSTTVNVDSLAEYEKSQIKRALELGTVMTVFSFRKSTPERRTVQVIMETRQVAWSKTADKIEGFLDIMEIKEIRPGKNSKDFERAKAVRQKEDCCFTILYGTQFVLSTLSLAADSKEDAVNWLSGLKILHQEAMNASTPTIIESWLRKQIYSVDQTRRNSISLRELKTILPLINFKVSSAKFLKDKFVEIGAHKDELSFEQFHLFYKKLMFEQQKSILDEFKKDSSVFILGNTDRPDASAVYLHDFQRFLIHEQQEHWAQDLNKVRERMTKFIDDTMRETAEPFLFVDEFLTYLFSRENSIWDEKYDAVDMQDMNNPLSHYWISSSHNTYLTGDQLRSESSPEAYIRCLRMGCRCIELDCWDGPDGKPVIYHGWTRTTKIKFDDVVQAIKDHAFVTSSFPVILSIEEHCSVEQQRHMAKAFKEVFGDLLLTKPTEASADQLPSPSQLREKIIIKHKKLGPRGDVDVNMEDKKDEHKQQGELYMWDSIDQKWTRHYCAIADAKLSFSDDIEQTMEEEVPQDIPPTELHFGEKWFHKKVEKRTSAEKLLQEYCMETGGKDGTFLVRESETFPNDYTLSFWRSGRVQHCRIRSTMEGGTLKYYLTDNLTFSSIYALIQHYRETHLRCAEFELRLTDPVPNPNPHESKPWYYDSLSRGEAEDMLMRIPRDGAFLIRKREGSDSYAITFRARGKVKHCRINRDGRHFVLGTSAYFESLVELVSYYEKHSLYRKMRLRYPVTPELLERYNMERDINSLYDVSRMYVDPSEINPSMPQRTVKALYDYKAKRSDELSFCRGALIHNVSKEPGGWWKGDYGTRIQQYFPSNYVEDISTADFEELEKQIIEDNPLGSLCRGILDLNTYNVVKAPQGKNQKSFVFILEPKQQGDPPVEFATDRVEELFEWFQSIREITWKIDTKENNMKYWEKNQSIAIELSDLVVYCKPTSKTKDNLENPDFREIRSFVETKADSIIRQKPVDLLKYNQKGLTRVYPKGQRVDSSNYDPFRLWLCGSQMVALNFQTADKYMQMNHALFSLNGRTGYVLQPESMRTEKYDPMPPESQRKILMTLTVKVLGARHLPKLGRSIACPFVEVEICGAEYDNNKFKTTVVNDNGLSPIWAPTQEKVTFEIYDPNLAFLRFVVYEEDMFSDPNFLAHATYPIKAVKSGFRSVPLKNGYSEDIELASLLVFCEMRPVLESEEELYSSCRQLRRRQEELNNQLFLYDTHQNLRNANRDALVKEFSVNENQLQLYQEKCNKRLREKRVSNSKFYS
B2: PLCγ2 spPH (aa 471-913, Δ516-841), wild type (domain or fragment)
chain: GGSGGSKKDEHKQQGELYMWDSIDQKWTRHYCAIADAKLSFSDDIEQTMEEDNPLGSLCRGILDLNTYNVVKAPQGKNQKSFVFILEPKQQGDPPVEFATDRVEELFEWFQSIREITWKIDTK
B3: PLCγ1-122 (PLCγ1 with both portions of the split PH domain of PLCγ2), c-myc epitope-tagged (enzyme)
chain: MAGAASPCANGCGPGAPSDAEVLHLCRSLEVGTVMTLFYSKKSQRPERKTFQVKLETRQITWSRGADKIEGAIDIREIKEIRPGKTSRDFDRYQEDPAFRPDQSHCFVILYGMEFRLKTLSLQATSEDEVNMWIKGLTWLMEDTLQAPTPLQIERWLRKQFYSVDRNREDRISAKDLKNMLSQVNYRVPNMRFLRERLTDLEQRSGDITYGQFAQLYRSLMYSAQKTMDLPFLEASTLRAGERPELCRVSLPEFQQFLLDYQGELWAVDRLQVQEFMLSFLRDPLREIEEPYFFLDEFVTFLFSKENSVWNSQLDAVCPDTMNNPLSHYWISSSHNTYLTGDQFSSESSLEAYARCLRMGCRCIELDCWDGPDGMPVIYHGHTLTTKIKFSDVLHTIKEHAFVASEYPVILSIEDHCSIAQQRNMAQYFKKVLGDTLLTKPVEISADGLPSPNQLKRKILIKHKKLAEGSAYEEVPTSMMYMEDKKDEHKQQGELYMWDSIDQKWTRHYCAIADAKLSFSDDIEQTMGNEDEEEPKEVSSSTELHSNEKWFHGKLGAGRDGRHIAERLLTEYCIETGAPDGSFLVRESETFVGDYTLSFWRNGKVQHCRIHSRQDAGTPKFFLTDNLVFDSLYDLITHYQQVPLRCNEFEMRLSEPVPQTNAHESKEWYHASLTRAQAEHMLMRVPRDGAFLVRKRNEPNSYAISFRAEGKIKHCRVQQEGQTVMLGNSEFDSLVDLISYYEKHPLYRKMKLRYPINEEALEKIGTAEPDYGALYEGRNPGFYVEANPMPTFKCAVKALFDYKAQREDELTFIKSAIIQNVEKQEGGWWRGDYGGKKQLWFPSNYVEEMVNPVALEPEREHLDENSPLGDLCRGILDLNTYNVVKAPQGKNQKSFVFILEPKQQGDPPVEFATDRVEELFEWFQSIREITWKIDTKETEGKIMERRKKIALELSELVVYCRPVPFDEEKIGTERACYRDMSSFPETKAEKYVNKAKGKKFLQYNRLQLSRIYPKGQRLDSSNYDPLPMWICGSQLVALNFQTPDKPMQMNQALFMTGRHCGYVLQPSTMRDEAFDPFDKSSLRGLEPCAISIEVLGARHLPKNGRGIVCPFVEIEVAGAEYDSTKQKTEFVVDNGLNPVWPAKPFHFQISNPEFAFLRFVVYEEDMFSDQNFLAQATFPVKGLKTGYRAVPLKNNYSEDLELASLLIKIDIFPAKQENGDLSPFSGTSLRERGSDASGQLFHGRAREGSFESRYQQPFEDFRISQEHLADHFDSRERRAPRRTRVNGDNRL

target: His-Rac2 (hexahistidine-tagged Rac2^G12V, aa 2-177) (human, UniProt P15153 2-177, G12V); test: SPR

| Binder | Kd | koff | kon |
| --- | --- | --- | --- |
| B1 | 3.9 µM | 0.0031 s⁻¹ | 806 M⁻¹ s⁻¹ |
| B2 | 17 µM | 0.0016 s⁻¹ | 93.8 M⁻¹ s⁻¹ |
| B3 | 5.8 µM | 0.0025 s⁻¹ | 434 M⁻¹ s⁻¹ |
